Experimental data published in publication PMC8184817, “Transmission of light signals from the light-oxygen-voltage core via the hydrophobic region of the β-sheet surface in aureochrome-1” (Scientific Reports, 2021).

What was measured:
Details in all cases: protein: recombinant; chain copies: 2; label: Alexa Fluor647 (EMSA); biotin (QCM); blunt; self-complementary palindrome, 2 copies
PZ F219V = biological target: T1, PZ F219V (Vaucheria frigida? (VfAUREO1), UniProt A8QW55 113-348, C162S;C182S;F219V); experiment: EMSA; QCM; dark state; low EC50; EMSA: 5% polyacrylamide gel, 25 C, dark or blue light 5 W/m2; QCM: 27 MHz, QCM buffer, 25 C; buffer, salt and pH not given (earlier papers cited); EC50 values (nM, per monomer) only in figures
T1 sequence: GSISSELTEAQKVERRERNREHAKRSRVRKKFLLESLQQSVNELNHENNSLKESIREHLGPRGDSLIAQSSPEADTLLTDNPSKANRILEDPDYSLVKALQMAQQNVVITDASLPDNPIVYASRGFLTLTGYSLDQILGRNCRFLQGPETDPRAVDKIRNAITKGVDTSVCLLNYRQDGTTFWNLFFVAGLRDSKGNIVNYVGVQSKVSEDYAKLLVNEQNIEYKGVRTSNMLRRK

PZ V314A = biological target: T2, PZ V314A (Vaucheria frigida? (VfAUREO1), UniProt A8QW55 113-348, C162S;C182S;V314A); experiment: EMSA; QCM; dark state; altered EC50; EMSA: 5% polyacrylamide gel, 25 C, dark or blue light 5 W/m2; QCM: 27 MHz, QCM buffer, 25 C; buffer, salt and pH not given (earlier papers cited); EC50 values (nM, per monomer) only in figures
T2 sequence: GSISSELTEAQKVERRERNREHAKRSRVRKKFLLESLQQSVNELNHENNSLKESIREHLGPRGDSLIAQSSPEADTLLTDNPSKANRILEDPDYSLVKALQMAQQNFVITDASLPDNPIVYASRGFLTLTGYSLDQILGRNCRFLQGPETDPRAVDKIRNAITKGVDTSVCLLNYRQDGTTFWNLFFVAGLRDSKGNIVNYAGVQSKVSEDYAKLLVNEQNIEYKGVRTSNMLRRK

PZ V316A = biological target: T3, PZ V316A (Vaucheria frigida? (VfAUREO1), UniProt A8QW55 113-348, C162S;C182S;V316A); experiment: as above
T3 sequence: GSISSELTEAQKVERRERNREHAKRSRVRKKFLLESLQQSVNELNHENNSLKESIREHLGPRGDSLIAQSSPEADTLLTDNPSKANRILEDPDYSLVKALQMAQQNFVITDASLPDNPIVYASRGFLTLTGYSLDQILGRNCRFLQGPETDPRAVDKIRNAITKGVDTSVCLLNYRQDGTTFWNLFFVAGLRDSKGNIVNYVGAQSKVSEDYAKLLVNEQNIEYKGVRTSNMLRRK

PZ Q217A = biological target: T4, PZ Q217A (Vaucheria frigida? (VfAUREO1), UniProt A8QW55 113-348, C162S;C182S;Q217A); experiment: EMSA; QCM; dark state; EC50 similar to wtPZ; EMSA: 5% polyacrylamide gel, 25 C, dark or blue light 5 W/m2; QCM: 27 MHz, QCM buffer, 25 C; buffer, salt and pH not given (earlier papers cited); EC50 values (nM, per monomer) only in figures
T4 sequence: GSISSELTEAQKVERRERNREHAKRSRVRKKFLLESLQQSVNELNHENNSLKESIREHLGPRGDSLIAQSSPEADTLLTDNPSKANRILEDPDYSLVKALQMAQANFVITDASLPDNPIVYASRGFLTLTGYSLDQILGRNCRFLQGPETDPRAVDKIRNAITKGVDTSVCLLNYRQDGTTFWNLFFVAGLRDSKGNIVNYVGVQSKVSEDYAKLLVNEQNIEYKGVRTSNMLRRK

PZ L208A = biological target: T5, PZ L208A (Vaucheria frigida? (VfAUREO1), UniProt A8QW55 113-348, C162S;C182S;L208A); experiment: EMSA; QCM; dark state; EC50 lower than wtPZ; EMSA: 5% polyacrylamide gel, 25 C, dark or blue light 5 W/m2; QCM: 27 MHz, QCM buffer, 25 C; buffer, salt and pH not given (earlier papers cited); EC50 values (nM, per monomer) only in figures
T5 sequence: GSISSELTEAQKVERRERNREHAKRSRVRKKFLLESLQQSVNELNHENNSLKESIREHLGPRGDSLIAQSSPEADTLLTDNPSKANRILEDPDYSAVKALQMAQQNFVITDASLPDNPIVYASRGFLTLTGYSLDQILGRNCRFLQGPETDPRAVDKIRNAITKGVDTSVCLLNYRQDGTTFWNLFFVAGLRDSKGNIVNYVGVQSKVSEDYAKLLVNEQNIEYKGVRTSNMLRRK

[1] = biological target: T6, PZ L201A/L208A/L212A (triple) (Vaucheria frigida? (VfAUREO1), UniProt A8QW55 113-348, C162S;C182S;L201A;L208A;L212A); experiment: as above
T6 sequence: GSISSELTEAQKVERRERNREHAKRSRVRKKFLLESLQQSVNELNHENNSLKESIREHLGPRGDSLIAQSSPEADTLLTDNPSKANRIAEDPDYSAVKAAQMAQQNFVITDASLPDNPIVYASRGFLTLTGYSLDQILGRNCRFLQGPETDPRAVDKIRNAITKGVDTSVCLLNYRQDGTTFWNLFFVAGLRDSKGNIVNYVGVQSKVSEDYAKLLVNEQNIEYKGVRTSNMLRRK

PZ L201A = biological target: T7, PZ L201A (Vaucheria frigida? (VfAUREO1), UniProt A8QW55 113-348, C162S;C182S;L201A); experiment: as above
T7 sequence: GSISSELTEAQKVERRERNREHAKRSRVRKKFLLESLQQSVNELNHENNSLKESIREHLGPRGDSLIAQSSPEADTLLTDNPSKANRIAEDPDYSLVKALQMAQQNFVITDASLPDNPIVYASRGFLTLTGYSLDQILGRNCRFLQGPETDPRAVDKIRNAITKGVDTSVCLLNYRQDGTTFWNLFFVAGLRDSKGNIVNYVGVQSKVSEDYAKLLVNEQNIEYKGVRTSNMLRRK

Measured: binding result

B1: dsApo (dsDNA)
DNA 1: GCTGTCTGACGTCAGACAGC
DNA 2: GCTGTCTGACGTCAGACAGC
binds: PZ F219V | PZ V314A | PZ V316A | PZ Q217A | PZ L208A | [1] | PZ L201A
